Reference: publication PMC8778164, “Towards Complete Tumor Resection: Novel Dual-Modality Probes for Improved Image-Guided Surgery of GRPR-Expressing Prostate Cancer” (Pharmaceutics, 2022)
Read-outs that look alike come from different tables or passages of the source.

Legend:
[1] = In vivo SPECT/CT imaging, VOI quantification; conditions: male, Balb/c nu/nu, mouse, tumor and kidneys (in vivo VOIs), iv, total radioactivity; from SPECT VOI %IA/mL, 2 h p.i., i.v., non-blocked, n = 3; read-out: Tumor-to-kidney ratio (SPECT)
Experimental: Seven-week-old male Balb/c nu/nu-specific and opportunistic pathogen-free (SOPF) mice (Janvier Labs, Le Genest-Saint-Isle, France) were housed in individually ventilated cages, with 4 mice per cage. Upon arrival, mice were acclimated for 1 week, with access to food and water ad libitum. […]
Mice (n = 3 per probe) were intravenously injected in the tail vein with 200 µL of Kolliphor® HS 15 (Merck, Haarlerbergweg, The Netherlands) in PBS (0.06 mg/mL) containing [^111In]In-12 (13.40 ± 0.76 MBq, ~670 pmol) or [^111In]In-15 (17.50 ± 1.78 MBq, ~875 pmol). […] The CT and registered, attenuation-corrected SPECT images were analyzed using PMOD (PMOD 3.9, Zurich, Switzerland) and quantification was performed by placing volumes of interest (VOIs) around the tumors and kidneys. An Eppendorf tube filled with a solution of indium-111 of a known activity was measured to determine the calibration factor. The total activity measured in the VOI was divided by the volume of all VOI pixel values and multiplied by the calibration factor to obtain the percentage of injected activity per volume unit (%IA/mL).

[2] = Ex vivo optical (fluorescence, IVIS) imaging of organs; type: in vivo, mouse; conditions: male, Balb/c nu/nu, mouse, iv, ex vivo radiant efficiency
Experimental: Seven-week-old male Balb/c nu/nu-specific and opportunistic pathogen-free (SOPF) mice (Janvier Labs, Le Genest-Saint-Isle, France) were housed in individually ventilated cages, with 4 mice per cage. Upon arrival, mice were acclimated for 1 week, with access to food and water ad libitum. Mice were subcutaneously inoculated on the right shoulder with PC-3 cells (5 × 10^6 cells suspended in 100 µL of 1/3 Matrigel (Corning Inc., Corning, NY, USA) and 2/3 Hank’s balanced salt solution (Gibco). PC-3 xenografts were allowed to grow for 3 weeks. Tumor sizes were 391 ± 173 mm^3 at the start of the studies. All animal experiments were approved by the Animal Welfare Committee of the Erasmus MC and were conducted in agreement with institutional guidelines (license number: AVD101002017867, 28 September 2017).
Before gamma counter measurements, the tumor half, pancreas, kidneys, lungs, small intestine, large intestine, liver, muscle, and bone were placed in two petri dishes and ex vivo optical imaging was performed with the IVIS Spectrum system (Perkin Elmer, Waltham, MA, USA) using the following settings for all measurements: FOV 12.6 cm, medium binning, f2, 0.5 s exposure with an excitation/emission filter of 640 nm/680 nm. Living Image version 4.5.2 software (Perkin Elmer) was used to perform data analysis by drawing a region of interest around the organ/tissue to quantify the radiant efficiency {(photons/second/cm^2/steradian)/(μW/cm^2)}.

[3] = Distribution coefficient (LogD7.4), shake-flask method; type: physicochemical; conditions: n-octanol/PBS pH 7.4, n = 3; read-out: Log D7.4
Experimental: Distribution coefficients (LogD7.4) for the ^111In-labeled compounds were determined by a shake-flask method. The experiments were performed in triplicate for each radioligand. A sample containing the radioligand (0.5–2.0 MBq) was dissolved in 1 mL solution of phosphate-buffered saline (0.01 M, pH 7.4) and n-octanol (v:v = 1:1). The vials were vortexed vigorously and then centrifuged at 10,000 rpm for 3 min, for phase separation. Samples (10 μL) of each phase were taken out and analyzed using a gamma counter. LogD7.4 values were calculated, using the following equation: LogD7.4 = log {(counts in n-octanol phase)/(counts in PBS phase)}.

[4] = Stability in mouse serum at 37 °C (iTLC); type: in vitro ADME; conditions: for Stability in Mouse Serum (%) 30 min / Stability in Mouse Serum (%) 1 h / Stability in Mouse Serum (%) 2 h / Stability in Mouse Serum (%) 4 h: intact labeled ligand after incubation at 37 °C in mouse serum, n = 1; for Protein-Bound Fraction at 4 h (%): mouse serum
Experimental: Stability in PBS was determined by incubating 20 µL of the labeled compounds (∼11 MBq) in PBS (80 µL) at 37 °C. Radiochemical purity was determined by iTLC at 30 min, 1 h, 2 h and 4 h. Stability in the serum was carried out by adding 70 µL of the labeled compound (∼35 MBq) to 330 µL of mouse serum (Merck, Haarlerbergweg, The Netherlands). The mixture was incubated at 37 °C. At different time points (30 min, 1 h, 2 h and 4 h), an aliquot of the mixture (50 µL) was added to 50 µL ACN. The vial was vortexed and centrifuged at 10,000 rpm for 20 min and the supernatant was analyzed by iTLC.

[5] = tumor and kidney, blocked with 150 nmol unlabeled NeoB, n = 1, read-out: Tumor-to-kidney ratio (fluorescence)
[6] = tumor and kidney, non-blocked, n = 3, read-out: Tumor-to-kidney ratio (fluorescence)
[7] = tumor and liver, blocked with 150 nmol unlabeled NeoB, n = 1, read-out: Tumor-to-liver ratio (fluorescence)
[8] = tumor and liver, non-blocked, n = 3, read-out: Tumor-to-liver ratio (fluorescence)
[9] = tumor and muscle, blocked with 150 nmol unlabeled NeoB, n = 1, read-out: Tumor-to-muscle ratio (fluorescence)
[10] = tumor and muscle, non-blocked, n = 3, read-out: Tumor-to-muscle ratio (fluorescence)
[11] = tumor and pancreas, blocked with 150 nmol unlabeled NeoB, n = 1, read-out: Tumor-to-pancreas ratio (fluorescence)
[12] = tumor and pancreas, non-blocked, n = 3, read-out: Tumor-to-pancreas ratio (fluorescence)

## CC(C)CC(CC(C)C)NC(=O)[C@H](Cc1c[nH]cn1)NC(=O)CNC(=O)[C@@H](NC(=O)[C@H](C)NC(=O)[C@H](Cc1c[nH]c2ccccc12)NC(=O)[C@H](CCC(N)=O)NC(=O)[C@@H](Cc1ccccc1)NC(=O)COCC(=O)Nc1ccc(CNC(=O)[C@H](CCCCNC(=O)CCOCCOCCOCCOCCNC(=O)OC2CCCC3C=NN=C(c4ccc(CNC(=O)CCCCC[N+]5=C(/C=C/C=C/C=C6N(C)c7ccc(S(=O)(=O)O)cc7C6(C)C)C(C)(C)c6cc(S(=O)(=O)[O-])ccc65)cc4)C3CC2)NC(=O)CN2CCN(CC(=O)O)CCN(CC(=O)O)CCN(CC(=O)O)CC2)cc1)C(C)C (stereo partly drawn) [[^111In]In-12, metal not drawn]
[1]
  tissue to tissue ratio at 2 h: 0.47 ± 0.05
[2]; [5]
  tissue to tissue ratio: 0.31
[2]; [6]
  tissue to tissue ratio: 0.47 ± 0.16
[2]; [7]
  tissue to tissue ratio: 0.69
[2]; [8]
  tissue to tissue ratio: 1.96 ± 0.47
[2]; [9]
  tissue to tissue ratio: 2.21
[2]; [10]
  tissue to tissue ratio: 5.69 ± 1.94
[2]; [11]
  tissue to tissue ratio: 2.54
[2]; [12]
  tissue to tissue ratio: 0.69 ± 0.22
[3]
  logD: -1.66 ± 0.01
[4]
  Stability in Mouse Serum (%) 30 min: 96.3%
  Stability in Mouse Serum (%) 1 h: 96.4%
  Stability in Mouse Serum (%) 2 h: 96.5%
  Stability in Mouse Serum (%) 4 h: 96.5%
  Protein-Bound Fraction at 4 h (%): 7.0%

## CC(C)CC(CC(C)C)NC(=O)[C@H](Cc1c[nH]cn1)NC(=O)CNC(=O)[C@@H](NC(=O)[C@H](C)NC(=O)[C@H](Cc1c[nH]c2ccccc12)NC(=O)[C@H](CCC(N)=O)NC(=O)[C@@H](Cc1ccccc1)NC(=O)CCOCCOCCOCCOCCNC(=O)[C@H](CCCCNC(=O)OC1CCCC2C=NN=C(c3ccc(CNC(=O)CCCCC[N+]4=C(/C=C/C=C/C=C5N(C)c6ccc(S(=O)(=O)O)cc6C5(C)C)C(C)(C)c5cc(S(=O)(=O)[O-])ccc54)cc3)C2CC1)NC(=O)CN1CCN(CC(=O)O)CCN(CC(=O)O)CCN(CC(=O)O)CC1)C(C)C (stereo partly drawn) [[^111In]In-15, metal not drawn]
[1]
  tissue to tissue ratio at 2 h: 0.49 ± 0.05
[2]; [5]
  tissue to tissue ratio: 0.24
[2]; [6]
  tissue to tissue ratio: 0.59 ± 0.14
[2]; [7]
  tissue to tissue ratio: 0.84
[2]; [8]
  tissue to tissue ratio: 1.96 ± 0.57
[2]; [9]
  tissue to tissue ratio: 1.54
[2]; [10]
  tissue to tissue ratio: 4.5 ± 1.87
[2]; [11]
  tissue to tissue ratio: 1.25
[2]; [12]
  tissue to tissue ratio: 0.95 ± 0.18
[3]
  logD: -1.75 ± 0.09
[4]
  Stability in Mouse Serum (%) 30 min: 96.9%
  Stability in Mouse Serum (%) 1 h: 96.7%
  Stability in Mouse Serum (%) 2 h: 96.9%
  Stability in Mouse Serum (%) 4 h: 97.1%
  Protein-Bound Fraction at 4 h (%): 6.5%
